Measured values from US20240101686A1 (SIMCERE ZAIMING PHARMACEUTICAL, published 2024).
Read-outs that look alike come from different tables or passages of the source.

What was measured:
[1] = target: T1, human EGFR-His-tagged fusion protein (human, UniProt P00533 25-645)
T1 construct: extracellular domain; bought; also called human EGFR protein; human EGFR-His protein

[2] = target: T1, human EGFR-His-tagged fusion protein; remark: listed apart in the source
[3] = target: T1, human EGFR-His-tagged fusion protein; remark: listed apart in the source
[4] = target: T1, human EGFR-His-tagged fusion protein; remark: listed apart in the source
[5] = target: T1, human EGFR-His-tagged fusion protein; remark: listed apart in the source
[6] = target: T1, human EGFR-His-tagged fusion protein; remark: listed apart in the source
pepvIII polypeptide = target: T2, pepvIII polypeptide (human)
T2 construct: synthetic peptide (GL Biochem); also called Leu25-His37 polypeptide
T2 peptide: LEEKKGNYVVTDH

[7] = target: T1, human EGFR-His-tagged fusion protein; remark: listed apart in the source
[8] = target: T1, human EGFR-His-tagged fusion protein; remark: listed apart in the source
[9] = target: T3, monkey EGFR protein (commercial, SB, catalog number 90285-C08H) (monkey); assay: ELISA, coated monkey EGFR protein, antibody 10 nM
T3 construct: Bought protein used to coat ELISA plates

[10] = target: T3, monkey EGFR protein (commercial, SB, …); assay: ELISA, coated monkey EGFR protein, antibody 1 nM
[11] = target: T4, cynomolgus monkey EGFR on HEK293T-monkey EGFR cells (cynomolgus monkey, UniProt P55245 25-1210 (rhesus entry)); assay: FACS, HEK293T-monkey EGFR cells
[12] = target: T3, monkey EGFR protein (commercial, SB, …); assay: ELISA, coated monkey EGFR protein, antibody 0.01 nM
[13] = target: T3, monkey EGFR protein (commercial, SB, …); assay: ELISA, coated monkey EGFR protein, antibody 0.001 nM
[14] = target: T4, cynomolgus monkey EGFR on …; assay: FACS, HEK293T-monkey EGFR cells (specificity assay)
[15] = target: T3, monkey EGFR protein (commercial, SB, …); assay: ELISA, coated monkey EGFR protein, antibody 0 nM (blank)
[16] = target: T3, monkey EGFR protein (commercial, SB, …); assay: ELISA, coated monkey EGFR protein, antibody 0.1 nM
[17] = target: T3, monkey EGFR protein (commercial, SB, …); assay: ELISA, coated monkey EGFR protein, antibody 100 nM
[18] = target: T3, monkey EGFR protein (commercial, SB, …); assay: ELISA, coated monkey EGFR protein, antibody 0.0001 nM
[19] = target: T5, human EGFRvIII-His tag protein (extracellular domain Leu25-Ser378) (human, UniProt P00533 298-645)
T5 construct: Made in HEK293E cells, purified on nickel column; also called human EGFRvIII protein; EGFRvIII protein; not shown: His tag

murine EGFR protein [20] = target: T6, murine EGFR protein (murine, UniProt Q01279 25-647)
T6 construct: Bought protein

murine EGFR protein [21] = target: T6, murine EGFR protein; remark: listed apart in the source
[22] = target: T5, human EGFRvIII-His tag protein …; remark: listed apart in the source
[23] = target: T5, human EGFRvIII-His tag protein …; remark: listed apart in the source
[24] = target: T5, human EGFRvIII-His tag protein …; remark: listed apart in the source
[25] = target: T5, human EGFRvIII-His tag protein …; remark: listed apart in the source
murine EGFR protein [26] = target: T6, murine EGFR protein; remark: listed apart in the source
murine EGFR protein [27] = target: T6, murine EGFR protein; remark: listed apart in the source
[28] = target: T5, human EGFRvIII-His tag protein …; remark: listed apart in the source
murine EGFR protein [29] = target: T6, murine EGFR protein; remark: listed apart in the source
murine EGFR protein [30] = target: T6, murine EGFR protein; remark: listed apart in the source
[31] = target: T5, human EGFRvIII-His tag protein …; remark: listed apart in the source
[32] = target: T5, human EGFRvIII-His tag protein …; remark: listed apart in the source
murine EGFR protein [33] = target: T6, murine EGFR protein; remark: listed apart in the source
murine EGFR protein [34] = target: T6, murine EGFR protein; remark: listed apart in the source
human EGFR protein = target: T7, human EGFR protein (human, UniProt P00533 25-645)
T7 construct: also called human EGFR-His; human EGFR-ECD protein; not shown: His tag

[35] = target: T8, human EGFRvIII-His tag protein (human, UniProt P00533 298-645)
T8 construct: Made in HEK293E, purified on nickel column; also called human EGFRvIII protein; not shown: His tag

murine EGFR protein [36] = target: T9, murine EGFR protein (murine, UniProt Q01279 25-647); remark: listed apart in the source
T9 construct: Bought protein

monkey EGFR protein = target: T10, monkey EGFR protein (cynomolgus monkey, UniProt P55245 25-645 (rhesus entry))
T10 construct: Bought protein (SB 90285-C08H); also called cynomolgus monkey EGFR

B1: 30D8-hIgG1 (antibody, V domains shown)
VH: EVQLVESGGGLVKPGGSLRLSCEASGFTFSDAWMSWVRQAPGKGLEWVGRIKSKTDGGTTDYVVPLNGRFIISRDDSRNTLYLQLNNLKTEDTAVYYCTTVPGSYGYWGQGTLVTVSS
VL: DIVMTQSPLSLPVTPGEPASISCRSSQSLLHNKRNNYLDWFLQKPGQSPQLLIYLASNRASGVPDRFSGGGSGTDFTLKISRVEAEDVGVYYCMQAQQTPITFGQGTRLEIK
OD450 [1]: 0.05
OD450 [2]: 0.05
OD450 [3]: 0.05
OD450 [4]: 0.07
OD450 [5]: 0.09
OD450 [6]: 0.06
binding result (pepvIII polypeptide): binds
OD450 [7]: 0.05
OD450 [8]: 0.05

B2: 30D8-hIgG1 (antibody, V domains shown)
VH: EVQLVESGGGLVKPGGSLRLSCEASGFTFSDAWMSWVRQAPGKGLEWVGRIKSKTDGGTTDYVVPLNGRFIISRDDSRNTLYLQLNNLKTEDTAVYYCTTVPGSYGYWGQGTLVTVSS
VL: DIVMTQSPLSLPVTPGEPASISCRSSQSLLHNKRNNYLDWFLQKPGQSPQLLIYLASNRASGVPDRFSGGGSGTDFTLKISRVEAEDVGVYYCMQAQQTPITFGQGTRLEIK
notes: Anti-EGFRvIII control
OD450 [9]: 0.08
OD450 [10]: 0.06
Max MFI [11]: 77
binding result [11]: no binding
OD450 [12]: 0.06
OD450 [13]: 0.06
Max_MFI [14]: 314
OD450 [15]: 0.06
OD450 [16]: 0.06
OD450 [17]: 0.19
OD450 [18]: 0.05

B3: 30D8-hIgG1 (antibody, V domains shown)
VH: EVQLVESGGGLVKPGGSLRLSCEASGFTFSDAWMSWVRQAPGKGLEWVGRIKSKTDGGTTDYVVPLNGRFIISRDDSRNTLYLQLNNLKTEDTAVYYCTTVPGSYGYWGQGTLVTVSS
VL: DIVMTQSPLSLPVTPGEPASISCRSSQSLLHNKRNNYLDWFLQKPGQSPQLLIYLASNRASGVPDRFSGGGSGTDFTLKISRVEAEDVGVYYCMQAQQTPITFGQGTRLEIK
notes: Variable regions cloned with human IgG1 heavy chain constant region and human light chain constant region
OD450 [19]: 0.69
OD450 (murine EGFR protein [20]): 0.06
OD450 (murine EGFR protein [21]): 0.06
OD450 [22]: 0.07
OD450 [23]: 0.15
OD450 [24]: 2.25
OD450 [25]: 1.89
OD450 (murine EGFR protein [26]): 0.06
OD450 (murine EGFR protein [27]): 0.06
OD450 [28]: 2.52
OD450 (murine EGFR protein [29]): 0.06
OD450 (murine EGFR protein [30]): 0.06
OD450 [31]: 0.07
OD450 [32]: 2.61
OD450 (murine EGFR protein [33]): 0.06
OD450 (murine EGFR protein [34]): 0.1

B4: 30D8-hIgG1 (antibody, V domains shown)
VH: EVQLVESGGGLVKPGGSLRLSCEASGFTFSDAWMSWVRQAPGKGLEWVGRIKSKTDGGTTDYVVPLNGRFIISRDDSRNTLYLQLNNLKTEDTAVYYCTTVPGSYGYWGQGTLVTVSS
VL: DIVMTQSPLSLPVTPGEPASISCRSSQSLLHNKRNNYLDWFLQKPGQSPQLLIYLASNRASGVPDRFSGGGSGTDFTLKISRVEAEDVGVYYCMQAQQTPITFGQGTRLEIK
notes: anti-EGFRvIII control
binding result (human EGFR protein): no binding (tested: 30 µg/mL (highest EGFR concentration))
Kd [35]: 11.7 nM
koff [35]: 0.00229 s⁻¹
kon [35]: 197000 M⁻¹ s⁻¹
binding result (murine EGFR protein [36]): no binding (tested: 200 nM (highest antigen concentration))
binding result (monkey EGFR protein): no binding (tested: 200 nM (highest antigen concentration))
